The target of the data set is RNaseH2 complex (RNaseH2A/RNaseH2B/RNaseH2C), wild type;PCNA (Homo sapiens;Homo sapiens, UniProt O75792;Q5TBB1;Q8TDP1;P12004 1-299;1-312;1-164;1-261, |). The data set is described as follows: EMSA; 100 nM PCNA; 2 mM MgCl2; 100 nM DNA; 0.4-1.0 uM RNaseH2; PCNA raises binding (p 0.025, 0.010, 0.003 at 0.6, 0.8, 1.0 uM; ns at 0.4 uM); EMSA: 25 mM Tris pH 7.5, 100 mM NaCl, 10% glycerol, 2 mM MgCl2, 30 min at RT; 5% native TBE-PAGE at 4 C. Cryo-EM structures (8YJH-8YJZ) carry endogenous DNA of. The note with it: protein: recombinant;recombinant; tags: N-terminal 6xHis (each subunit as stated);N-terminal 6xHis; copies: 1;1;1;3; blunt. Background: Mobility shift assays separate free from complexed probe on a gel.
Sequence of RNaseH2 complex (RNaseH2A/RNaseH2B/RNaseH2C), wild type;PCNA (O75792 whole entry, chain 1 of 4): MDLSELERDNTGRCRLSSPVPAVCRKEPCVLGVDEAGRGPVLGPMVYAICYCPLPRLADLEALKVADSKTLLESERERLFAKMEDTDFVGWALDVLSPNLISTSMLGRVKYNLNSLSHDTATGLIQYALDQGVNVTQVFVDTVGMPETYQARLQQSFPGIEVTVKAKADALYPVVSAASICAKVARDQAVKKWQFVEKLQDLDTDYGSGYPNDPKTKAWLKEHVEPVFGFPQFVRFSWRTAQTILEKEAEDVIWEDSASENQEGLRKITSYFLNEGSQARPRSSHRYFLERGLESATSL
Sequence of RNaseH2 complex (RNaseH2A/RNaseH2B/RNaseH2C), wild type;PCNA (Q5TBB1 whole entry, chain 2 of 4): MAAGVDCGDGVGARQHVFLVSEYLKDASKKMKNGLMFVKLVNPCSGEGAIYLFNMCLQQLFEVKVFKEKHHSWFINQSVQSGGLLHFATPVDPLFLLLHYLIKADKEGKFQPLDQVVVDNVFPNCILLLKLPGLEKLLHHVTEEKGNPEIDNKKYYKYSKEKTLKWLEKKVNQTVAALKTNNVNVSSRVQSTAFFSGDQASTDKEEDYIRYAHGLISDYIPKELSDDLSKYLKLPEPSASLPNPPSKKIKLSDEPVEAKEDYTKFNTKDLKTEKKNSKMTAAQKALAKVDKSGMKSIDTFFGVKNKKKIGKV
Sequence of RNaseH2 complex (RNaseH2A/RNaseH2B/RNaseH2C), wild type;PCNA (Q8TDP1 whole entry, chain 3 of 4): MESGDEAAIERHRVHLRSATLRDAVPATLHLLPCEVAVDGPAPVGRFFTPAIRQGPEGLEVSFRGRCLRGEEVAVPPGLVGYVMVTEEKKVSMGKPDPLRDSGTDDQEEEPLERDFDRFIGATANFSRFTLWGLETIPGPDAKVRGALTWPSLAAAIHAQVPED
Sequence of RNaseH2 complex (RNaseH2A/RNaseH2B/RNaseH2C), wild type;PCNA (P12004 whole entry, chain 4 of 4): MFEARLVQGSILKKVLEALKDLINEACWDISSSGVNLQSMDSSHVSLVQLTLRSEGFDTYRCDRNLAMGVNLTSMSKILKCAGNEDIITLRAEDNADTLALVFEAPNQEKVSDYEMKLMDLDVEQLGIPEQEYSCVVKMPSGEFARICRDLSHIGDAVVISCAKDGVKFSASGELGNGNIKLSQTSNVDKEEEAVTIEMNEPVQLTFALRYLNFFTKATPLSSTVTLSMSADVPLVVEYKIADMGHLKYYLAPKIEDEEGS

B1: 5'-FAM 20 bp dsDNA (dsDNA)
DNA 1: CGGTTATAGGTTCACGGGGT
DNA 2: ACCCCGTGAACCTATAACCG
On to B1, for which the binding result is “binds”.

The record behind these values is article PMC11731006, “Structural insight into Okazaki fragment maturation mediated by PCNA-bound FEN1 and RNaseH2”.
